Positions count from the first letter of the chain named.

This assay has as its target T1, Soluble CTLA-4-Ig (human, UniProt P16410 36-161, FITC-conjugated in the two-colour FACS assays; unlabelled and detected with FITC goat anti-human IgG in the concentration-dependent assay).
T1 construct: extracellular domain; Bought from R&D Systems; also called sCTLA-4-Ig; CTLA-4-Ig Fc; not shown: Fc portion of human IgG1
Put plainly: two-colour FACS profile on transfected cells; score of preference for CTLA-4-Ig over CD28-Ig vs WT hB7-1.

T1 sequence (P16410 36-161): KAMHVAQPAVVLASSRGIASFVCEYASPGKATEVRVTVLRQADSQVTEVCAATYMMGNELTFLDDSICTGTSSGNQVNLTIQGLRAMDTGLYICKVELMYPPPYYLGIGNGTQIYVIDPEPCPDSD

B1: Round 2 CTLA4 A-C9-9 (ligand)
chain: SGITPKSVTKRVKETVMLSCDYSTSTEELTSLRIYWQKDSKMVLAILPGKVQVWPEYKNRTFPDIINNLSLMILALRLSDRGTYTCVVQKNENGSFRREHLTSVTLSIRADFPVPSITDIGHPAPNVKRIRCSASGGFPEPRLAWMEDGEELNAVNTTVDQDLDTELYSVGSELDFNVTNNHSIVCLIKYGELSVSQIFPWSKPKQEPPIDQLPFWVIIPVSGALVLTAVVLYCLARRHVARWKRTRRNEETVGTERLSPIYLGSAQSSG
For B1, the “Binding Score” value is 0.

B2: Round 1 CTLA4BP-7 (ligand)
chain: VIHVTNEVKEVATLSCGHNVSGEELAQTRIYWQKEKKMVLTMMYGDMNIWPEYKNRTIFDITNNLSIVILALRPSDEGTYECVVLKYEKDAFKREHLAEVMLSVKADFPTPSITDFEIPPSNIRRIICLTSGGFPEPRLAWMKDGEELNAISTTVSQDPGTELYAVSSKLDFNMTTNHSFMCLIKYGHLRVNQTFSWNTPKQEHFPDNLLPSWAITLISVNGIFVICCLTYCFAPRCRERRRNERLRRESVRPV
notes: also called R1-7; R1 CTLA-4BP-7
For B2, the “Binding Score” value is 1.

B3: Round 2 CTLA4 A-B4-6 (ligand)
chain: ITPKSVTKRVKETVMLSCDYNTSTEELTSLRIYWQKDSKMVLAILPGKVQVWPEYKNRTITDMNDNPRIVILALRLSDKGTYTCVVQKNENGSFRREHLTSVTLSIRADFPVPTINDLGNPSPNIRRLICSTSGGFPRPHLYWLENGEELNATNTTLSQDPETKLYMISSELDFNMTSNHSFLCLVKYGDLTVSQTFYWQESKPTPSANQHLTWTIIIPVSAFGISVIIAVILTCLTCRNAAIRRQRRENEVEMQSCSQSP
B3: the “Binding Score” value is 1.

B4: Round 2 CTLA4 A-E2-6 (ligand)
chain: B3 chain with K79S, T103R, S105M, S158P
B4: the “Binding Score” value stood at 1.

B5: Round 2 CTLA4 A-F10-1 (ligand)
chain: B3 chain with F197L
With B5, the “Binding Score” value came out at 1.

B6: Round 2 CTLA4 A-F1-6 (ligand)
chain: B3 chain with N21S, T103R, S105M
Consider B6, for which the “Binding Score” value came out at 1.

B7: Round 2 CTLA4BP-5x5-6e (ligand)
chain: VIHVTKEVKEVATLSCGHNVSVEELAQTRIHWQKEKKMVLTMMSGDMNIWPEYKNRTIFDITNNLSIVILALRPSDEGTYECVVLKYEKDAFKREHLAEVMLSVKADFPTPSITDFEIPPSNIRRIICSTSGGFPEPHLSWLENGEELNAISTTVSQDPETELYTVSSKLDFNMTTNHSFMCLIKYGHLRVNQTFNWNTTKQEHFPDNLLPSWAITLISANGIFVICCLTHCFAPRCRERKRNERLRRESVRPV
With B7, the “Binding Score” value was 2.

B8: Round 2 CTLA4BP-5x8-1f (ligand)
chain: B7 chain with T130A, S140F, S152N, T165A, K185R, T200P, A220V, H231Y, R242S
Take B8: the “Binding Score” value stood at 2.

B9: Round 2 CTLA4BP-5x6-9d (ligand)
chain: B7 chain with T114S, P120T, S152N, T176A, M181V, T200P, A220V, H231Y, K241R
As for B9, the “Binding Score” value is 2.

B10: Round 2 CTLA4BP-5x9-12c (ligand)
chain: B7 chain with S152N, V155A, T200P, A220V, H231Y, R242S
Regarding B10, the “Binding Score” value came to 2.

B11: Round 2 CTLA4BP-5x2-10c (ligand)
chain: VIHVTKEVKEVATLSCGHNVSVEELAQTRIHWQKEKKMVLTMMSGDMNIWPEYKNRTIFDITNNLSIVILALRPSDEGTYECVVLKYEKDAFKREHLAEVMLSVKADFPTPSITDFEIPPSNIRRIICSTSGGFPEPHLSWLENGEELNAINTTVSQDPETELYTVSSKLDFNMTANHSFVCLIKYGHLRVNQTFNWNTPKQEHFPDNLLPSWAITLISVNGIFVICCLTYCFAPRCRERRNETLRRESVRPV
For the molecule B11, the “Binding Score” value was found to be 2.

B12: Round 2 CTLA4BP 2x3-h2 (ligand)
chain: VIHVTKEVKEVATLSCGHNVSVEELAQTRIYWQKEKKMVLTMMSGDMNIWPEYKNRTIFDITNNLSIVILALRPSDEGTYECVVLKYEKDAFKREHLAEVMLSVKADFPTPSISDFEIPPSNIRRIICSTPGGFPEPRLAWMEDGEELNAISTTVSQDPGTELYAVSSKLDFNMTTNHSFMCLIKYGHLRVNQTFNWNTTKQEHFPDNLLPSWAITLISVKGIFVICCLTYCFAPRWRERKSNERLRRESVRPV
In the case of B12, the “Binding Score” value turned out to be 0.

B13: Round 2 CTLA4 A-H3-6 (ligand)
chain: GISQVTKSVKEMAALSCDYNISIDELARMRIYWQKDQQMVLSIISGQVEVWPEYKNRTFPDIINNLSLMILALRLSDKGTYTCVVQKNENGSFRREHLTSVTLSIRADFPVPSINDLGNPSPNIRRLICSTSGGFPRPHLYWLENGEELNATNTTLSQDPETKLYMISSELDFNMTSNHSFLCLVKYGDLTVSQTFYWQESKPTPSANQHLTWTIIIPVSAFGISVIIAVILTCLTCRNAAIRRQRRENEVEMQSCSQSP
As for B13, the “Binding Score” value was 1.

B14: Round 2 CTLA4BP 2x2-f3 (ligand)
chain: VIYVTKEVKEVATLSCGHNVSVEELAQTRIYWQKEKKMVLIMMSGDMNIWPEYKNRTIFDITNNLSIVILALRPSDEGTECVVLKYEKDAFKREHLAEVTLSVKADFPTPSISDFEIPPSNIRRIICSTSGGFPEPHLSWLENGEELNAINTTVSQDPGTELYTVSSKLDFNMTTNHSFMCLIKYGHLRVNQTFNWNTPKQEHFPDNLLPSWAITLISVNGIFVICCLTYCFAPRCRERRRNERLRRESVCPV
Take B14: the “Binding Score” value amounted to 1.

B15: Round 2 CTLA4BP 2x4-g9 (ligand)
chain: VIHVTKEVKEVATLSCGHNVSVEELAQTRIYWQKDKKMVLTMMSGDMNIWPEYKNQTIFDITNNLSIVILALRPSDEGTYECVVLKYEKDAFKQEHLAEVMLSVKADFPTPSISDFEIPPSNIRRIICSTSGGFPEPRLAWMEDGEELNAISTTVSQDPGTELCTVSSKLDFNMTTNHSFMCLIRYGHLRVNQTFNWNTPKQEHFPDNLLPSWAITLISVKGIFVICCLTYCFAPRGRERKSNGRLRRESVHPV
As for B15, the “Binding Score” value is 1.

B16: Round 2 CTLA4BP 2x1-c9 (ligand)
chain: VIHVTKEVKEVATLSCGHNVSAEELAQTRIYWQKEKKMVLTMMSGDMNIWPEYKNRTIFDITNNLSIVILALRPSDEGTYECVVLEYEKDAFKREHLAEVMLSVKADFPTPSITDFEIPTSNIRRIICSTSGGFPEPRLAWMEDGEELNAISTTASQDPETELYTVSSKLDFNMTTNHSFMCLIKYGHLRVNQTFNWNTPKQEHFPDNLLPSWAITLISVNGIFVICCLTHCFAPRCRERRRNERLRRESVCPV
On to B16, for which the “Binding Score” value is 1.

B17: Round 2 CTLA4BP 2x1-e2 (ligand)
chain: VIHVTKEVKEVATLSCGHNVSDEELAQTRIHWQKEKKMVLTMMSGDMNIWPEYKNRTIFDITNNLSIVILALRPSDEGTYECVVLKYEKDAFKREHLAEVTLSVKADFPTPSISDFEIPPSNIRRIICSTSGGFPEPHLSWLENGEELNAINTTVSQDPGTELYTVSSKLDFNMTTNHSFMCLIKYGHLRVNQTFNWNTPKQEHFPDNLLPSAITLISANGIFVICCLTYCFAPRCRERRRNERLRRESIHPV
B17: the “Binding Score” value was 1.

B18: Round 2 CTLA4 A-H4-5* (ligand)
chain: ITPKSVTKRVKETVMLSCDYSTSTEELTSLRIYWQKDSKMVLAILPGKVQVWPEYKNRTITDMNDNPRIVILALRLSDKGTYTCVVQKNENGSFRREHLTSVTLSIRADFPVPSITDIGHPAPNVKRIRCSASGGFPEPRLYWLENGEELNATNTTVSQDPGTELYMISSELDFNVTNNHSIVCLIKYGELSVSQIFPWSKPKQEPPIDQLPFWVIIPVSGALVLTAVVLYCLACRHVARWKRTRRNEETVGTERLSPIYLGSAQSSG
As to B18, the “Binding Score” value came to 1.

Source of the values: patent US20050154189A1 (MAXYGEN, published 2005).
